According to patent US20240209109A1:

Key:
[1] = biological target: human CD40-His protein (human) (UniProt P25942); experiment: ELISA on coated human CD40-His (1.0 ug/ml), anti-human IgG-HRP, OD450
[2] = biological target: human CD40 on cells (human) (UniProt P25942); experiment: FACS on Jurkat cells overexpressing human CD40, PE anti-human IgG, MFI
[3] = biological target: human CD40 on cells (human) (UniProt P25942); experiment: as above; remark: listed apart in the source
[4] = biological target: human CD40 on cells (human) (UniProt P25942); experiment: FACS on human B cells (CD19+ gate), PE anti-human IgG Fc, MFI

Chain of human CD40 on cells (human) (P25942 21-277): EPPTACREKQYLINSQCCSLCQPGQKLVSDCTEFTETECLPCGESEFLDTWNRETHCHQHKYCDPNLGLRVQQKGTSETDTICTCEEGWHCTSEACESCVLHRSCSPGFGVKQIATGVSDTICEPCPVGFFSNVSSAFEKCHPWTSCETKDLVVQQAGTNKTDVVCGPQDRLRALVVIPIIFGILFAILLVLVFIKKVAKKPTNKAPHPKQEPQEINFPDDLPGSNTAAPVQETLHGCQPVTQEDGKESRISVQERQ
Chain of selicrelumab (antibody) (VH): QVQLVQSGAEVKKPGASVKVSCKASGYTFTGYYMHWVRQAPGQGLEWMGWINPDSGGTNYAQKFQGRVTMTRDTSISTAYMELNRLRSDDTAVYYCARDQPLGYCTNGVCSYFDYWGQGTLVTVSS
Chain of selicrelumab (antibody) (VL): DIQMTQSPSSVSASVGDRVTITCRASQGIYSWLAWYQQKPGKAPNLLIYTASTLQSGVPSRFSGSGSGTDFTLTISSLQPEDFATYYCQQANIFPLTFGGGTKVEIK
Chain of human CD40-His protein (human) (P25942 21-193 limits assumed): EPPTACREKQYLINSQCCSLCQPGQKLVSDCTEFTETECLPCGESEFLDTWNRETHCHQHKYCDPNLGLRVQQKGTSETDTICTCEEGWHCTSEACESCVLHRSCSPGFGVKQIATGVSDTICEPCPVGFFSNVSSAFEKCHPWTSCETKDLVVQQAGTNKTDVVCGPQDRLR

- EC50 (read off the curve) [1]: 0.7 nM
- EC50 (read off the curve) [2]: 1 nM
- EC50 (read off the curve) [3]: 0.9 nM
- EC50 (read off the curve) [4]: 1 nM
Substance: selicrelumab (antibody)
